Assay: label from the status in PepcDB records
In the case of “MGSDISQFSASPAARQHTWTLAAYRYMARKRLGGKTAIDLKSVATKSWDIAPGEATVSPPAIFLPGQLDRVTGWEGKRFYPYVHPAQTMAGGIHTLQGPTRGYLIKDVWLVDGALYKGKASHWLSQKPSTFPTILIDHEIDRAAIYCTLNGNAWFGTWLMEDCPTYALACNEGIPVTTAPSARYPLFTQAPAYEDWLDMKPLRLRSAFFRELVLFDDQSNNRSRHARYRAMGDKLLSHVTHTQHPGVFLLRGGDGDLRLLRNELELAEHLRTTRGFRIVNPLKSDVPSIVAACAGAKVVIGVEGSQLVHGVNVLQAGGCLLTLQPPNRFVSYYKYLTDRDHQHFGFVVGLPEGDGFRIDIDEVERTLDLFPR”, the protein production is reported as “failed”.
In the case of “MGSGAGNFLKVLLRNFDVLAGPVVSLVYPLYASVQAIETQSHADDKQWLTYWVLYSLLTLIELTFAKLIEWLPIWSYMKLILTCWLVIPYFSGAAYVYEHFVRPVFVNPRSINIWYVPKKMDIFRKPDDVLTAAEKYIAENGPDAFEKILSRADKSKRYNKHEYESYETMYGEGYQY”, the protein production is reported as “failed”.
For “MGSGGVVHCRCAKCFCYPTKRRIRRRPRNLTILSLPEDVLFHILKWLSVEDILAVRAVHSQLKDLVDNHASVWACASFQELWPSPGNLKLFERAAEKGNFEAAVKLGIAYLYNEGLSVSDEARAEVNGLKASRFFSLAERLNVGAAPFIWLFIRPPWSVSGSCCKAVVHESLRAECQLQRTHKASILHCLGRVLSLFEDEEKQQQAHDLFEEAAHQGCLTSSYLLWESDRRTDVSDPGRCLHSFRKLRDYAAKGCWEAQLSLAKACANANQLGLEVRASSEIVCQLFQASQAVSKQQVFSVQKGLNDTMRYILIDWLVEVATMKDFTSLCLHLTVECVDRYLRRRLVPRYRLQLLGIACMVICTRFISKEILTIREAVWLTDNTYKYEDLVRMMGEIVSALEGKIRVPTVVDYKEVLLTLVPVELRTQHLCSFLCELSLLHTSLSAYAPARLAAAALLLARLTHGQTQPWTTQLWDLTGFSYEDLIPCVLSLHKKCFHDDAPKDYRQVSLTAVKQRFEDKRYGEISQEEVLSYSQLCAALGVTQDSPDPPTFLSTGEIHAFLSSPSGRRTKRKRENSLQEDRGSFVTTPTAELSSQEETLLGSFLDWSLDCCSGYEGDQESEGEKEGDVTAPSGILDVTVVYLNPEQHCCQESSDEEACPEDKGPQDPQALALDTQIPATPGPKPLVRTSREPGKDVTTSGYSSVSTASPTSSVDGGLGALPQPTSVLSLDSDSHTQPCHHQARKSCLQCRPPSPPESSVPQQQVKRINLCIHSEEEDMNLGLVRL”, the protein production was “failed”.
With “MGSGWGPLEPWDRLAQPRPATGRLAAPPHCPPALPLHSAAPGSRTGTGAMERTAGKELALAPLQDWGEETEDGAVYSVSLRRQRSQRSTPEGSGDGQTPIPAMDTFLQYRTSKVRALRAARLERLVHELVSGDREQDPGFVPAFLATHRAFVPTARVLGFLLPPPPPPPPPPAGVDSKRTEGQDLNFSKNLRAVVSVLGSWLRDHPQDFRDPPDHQNLGDVRIFLGWAAPGGAEVREAEKLLEDFLKEAKEEQTEGEQRLAWAGPPWAAQSPRSEFAEDYSEEEGLRSEGPELLDFSVDEVAEQLTLMDVELFLRVRSCECLGSMWSQRDRPGAAGISPTVRATVAQFNAVTGCVLGSVLAAPGLAASQRAQRIEKWIRIAQRCRELRNFSSLRAILSALQSNPIYRLKRSWGAVSREPLSVFRKLSQIFSDEDNHLSSRAILSQEETTEGPQGDDCSPGSLPSKLPPGPVPYLGTFLTDLVMLDTALPDMLKGNLINFEKRRKEWEILARIQQLQHRCQHYSLSPRPPILAALRAQRQLSEEQSYRVSRVIEPPAASCPSSPRIRRRISLTKRLSAKLSREKNQSPGGSPGDPPSPTSSVSPGSPPASPRSQDPPPGSPPASPGPQSPSTKLSLSMEPPGPWPMTLTPSSSRTPLLGQQTSEARVIRVSINNNHGNLYRSILLTCQDKAPSVVQRALEKHNVPQPWARDYQLLQVLPGDRELLIPDSANVFYAMNPAAPGDFLLRRKEGTGHTPSASPS” the protein production was “failed”.
With “MGSIEEVLLEERLIGYLDPGAEKVLARINRPSKIVSTSSCTGRITLIEGEAHWLRNGARVAYKTHHPISRSEVERVLRRGFTNLWLKVTGPILHLRVEGWQCAKSLLEAARRNGFKHSGVISIAEDSRLVIEIMSSQSMSVPLVMEGARIVGDDALDMLIEKANTILVESRIGLDTFSREVEELVECF” the protein production was “not failed”.
For “MGSKPSSLADEVAIIVEQVDKVMGMVFWCPLYWESIELLAKDEVSRAIFYGLTEGCKLDYLKYKTKASMVPEMTRFYS”, the protein production was “not failed”.
With “MGSKTSPKWISAILRWPLLWHAARLALVSAYILGGFTKLLDLAGAAAEQEHFGLYPGWLWASAAILVELFGSLLVVINRWVWLGAGGLGILTFVAMLTANAFWTMGGHERFMATNAFFEHLGLIAGLVIVTILSEEAVTRPKSGAGSQAIQGVSR” the protein production was “failed”.
With “MGSLRLLADIQGEDLESLYGYAKQLFDGGEIAAARNVYQLLSTLDHWNFDYLLALGLCHQRLGAHNEAVVCFGRAGLIKVDDPRAAFYAGISYRLDGNAEYASKAFKAAINWCGEQIDYQAIKASAVDMLALQQEEVPLEHHHHHH” the protein production was “failed”.
In the case of “MGSSHHHHHHSSGENLYFQGHMDVLASGEKSRMLFERTKELFPGGVNSPVRAAVKPYPFYVKRGEGAYLYTVDGARIVDLVLAYGPLILGHKHPRVLEAVEEALARGWLYGAPGEAEVLLAEKILGYVKRGGMIRFVNSGTEATMTAIRLARGYTGRDLILKFDGCYHGSHDAVLVAAGSAAAHYGVPTSAGVPEAVARLTLVTPYNDVEALERVFAEYGDRIAGVIVEPVIANAGVIPPRREFLAALQRLSRESGALLILDEVVTGFRLGLEGAQGYFNIEGDIIVLGKIIGGGFPVGAVAGSREVMSLLTPQGKVFNAGTFNAHPITMAAGLATLKALEEEPVYSVSREAAKALEEAASEVLDRTGLPYTINRVESMMQLFIGVEEVSNAAQARKADKKFYVKLHEEMLRRGVFIAPSNLEAVFTGLPHQGEALEIAVEGLRSSLKTVLGS”, the protein production is reported as “not failed”.
With “MGSSHHHHHHSSGLVPRGSHMLEGIIEEKALFVTCGATVPFPKLVSCVLSDEFCQELIQYGFVRLIIQFGRNYSSEFEHLVQERGGQRESQKIPIDQFGCGDTARQYVLMNGKLKVIGFDFSTKMQSIIRDYSDLVISHAGTGSILDSLRLNKPLIVCVNDSLMDNHQQQIADKFVELGYVWSCAPTETGLIAGLRASQTEKLKPFPVSHNPSFERLLVETIYS” the protein production was “not failed”.
For “MGSSHHHHHHSSGLVPRGSPQQLVERLQEEKRIEAQKRKERQEAHLYMQVQIVAEDQFCGHQGNDMYDEEKVKYTVFKVLKNSSLAEFVQSLSQTMGFPQDQIRLWPMQARSNGTKRPAMLDNEADGNKTMIELSDNENPWTIFLET”, the protein production was “not failed”.
With “MGSSHHHHHHSSGRENLYFQGEPPPSVRREFPLKVRLSTGKDVRLSASLPDTVGQLKRQLHAQEGIEPSWQRWFFSGKLLTDRTRLQETKIQKDFVIQVIIN” the protein production was “not failed”.
For “MGSSHHHHHHSSGRENLYFQGMLLHSVQTPRGEILNVSEQEARDVFGASEQAIADARKATILQTLRIERDERLRACDWTQVQDVVLTADQKATWAKYRQALRDLPETVTDLSQIVWPQLPV”, the protein production was “not failed”.
In the case of “MGSSHHHHHHSSGRENLYFQGMNIGRLRDRITIQTLKQTRDITGEILETWEDGHTLWASVNMVSSKEAISSGAELAIGTVRIWIRYRKDINATSRIKVSTGPLAGRVLNIIGQPLPDAARTRLEILCREGAEK”, the protein production is reported as “not failed”.
For “MGSSHHHHHHSSGRENLYFQGSQESIQNKISQCKFSVCPERLQCPLEAIQCPITLEQPEKGIFVKNSDGSDVCTLFDAAAFSRLVGEGLPHPLTREPITASIIVKHEECIYDDTRGNFIIKGN”, the protein production was “not failed”.
In the case of “MGSSHHHHHHSSGRENLYFQGSQRPVDRNPPRINLMPTGANRVAMRNRGNNEADAALQALAQNGINMEDLRAALEAYIVWLRPIPLDIANALEGVGITPRFDNPEEAKVDNPLMNLSSALKRRLDA”, the protein production is reported as “not failed”.
With “MGSTQYWDLKSGVCTRIFGGHQGTITCMDLCKNRLVSGGRDCQVKVWDVDTGKCLKTFRHKDPILATRINDTYIVSSCERGLVKVWHIAMAQLVKTLSGHEGAVKCLFFDQWHLLSGSTDGLVMAWSMVGKYERCLMAFKHPKEVLDVSLLFLRVISACADGKIRIYNFFNGNCMKVIKANGRGDPVLSFFIQGNRMVVNTESNVLMFQFEHIKWQYAVEKTKQKKNKEKEEEKEENSLMEILSKCNIQVHSPRESVSSKQTVIQELLPGKPPKSRVLLKPAKFSSAVLIEELQSQGKSKSPRRDADDVEKAQKQGQLETPGKLPSHPKKKSWKIPMSPDQFLLTVSALQHARNSGEFAYPCRPQTEITDVWGPSISYPRKVLNFKGKSIQRAVDRLRLSNPPIDVKRTSIPLEIQKLQPNLKISLHSPRAQSTIPQPMIIRSRFSGSLKGGDQVTSSIERAVCSTGPLTSMQVIKPNRMLAPQVGTATLSLKKERPRIYTALDPFRVNAEFVLLTVKEEKEHQEAKMKEYQARESTGVVDPGKASKAAWIRKIKGLPIDNFTKQGKTAAPELGQNVFI” the protein production was “failed”.
With “MGSVQVKAHADEQGRAVVRASIEIAAPPSVVFGVILDCGRAARMSPGVKRCRVVSRAADGSEVREHTVKWGFFLPALQSRSRLSLQPDREIRFTCIGGDIRACDGFWRLEPLDGGMRTRVTYDLWATAPYAAPAGLVSSLMRRTVPQSLAALRRECEGLEHHHHHH” the protein production was “failed”.
With “MGTDKFNNIKIDKYENLINVLKTGDIFLCSGNYLVSKLIKKVSESMFSHTGIIVKWGEHTLIMESVEDDGVRIVPLEHYIKNYENSNNRYNGSLFIARHELLQNVNDDSEMIRNLIKVGFSLLNSGYDKNEIAQIVARIGLGIGRHEDNNEYICSEFVNECFKKIGVEFLTDSEGFIFPEHIAADHHVLPIAQIE” the protein production was “not failed”.
With “MGTEAEQPSPPAQQQDQENPPLCKAQNPKPARLYRFVLIFVAGSLAAWTFHALSSTNLVWKLRQLHHLPTAHYLQTRDEFALYSVEELNAFKEFYDKSVSDSVGASYTEAEQTNIKEALGALRMAQDLYLAGKDDKAARLFEHALALAPRHPEVLLRYGEFLEHNQRNIVLADQYYFQALTISPSNSEALANRQRTADVVQSLDERRLESLDSKRDALSAIHESNGALRRAKKEAYFQHIYHSVGIEGNTMTLAQTRSILETRMAVDGKSIDEHNEILGMDLAMKYINASLVQKIDITIKDILELHRRVLGHVDPIEGGEFRRNQVYVGGHIPPGPGDLALLMQRFERWLNSEHSSTLHPVNYAALAHYKLVHIHPFVDGNGRTSRLLMNTLLMRAGYPPVIIPKQQRSKYYHFLKLANEGDIRPFVRFIADCTEKTLDLYLWATSDLPQQIPMLIQTESEAGERLAQMQSPNVAQRSSILEFYESGSGDLP” the protein production was “failed”.
With “MGTNKQTALLPTVNQAITDGAVFGVSYSLLGPQENALHVIGYQGAGDDRLPLLPQARYDLASLTKVVGTTTRLLQLLIAGKLELTQPIGSLVSGLRYPQLTIEQLMLHRSGLPADVPDAHALDQAGLVHAVKTMAAVAAPDTETIYSDLNYIILGWAIAALDGDLATSLTQHIFAPLGMHATGYRPQHVAAADFVPTENVPARGGIIRGTVHDHKAFLLDGVSGHAGLFATLADLTIFTRLLAGLPVTNGDHVLPPAAFVLLDRFCKGGRTLGWRCWAQGRHQYWHTGFTGTSIAFDRDTQCGFVCLTNRIYPSRANRAWLAVRRQLLTQFFEVATSWPD” the protein production was “failed”.
With “MGTQRSDTRDQSARLMRRATYASVTVAMTLVVAKLVAWVLTDSVALLSTLIDSLIDVGASLVTLLAVREALTPADEEHRFGHGKAEPLAGLGQAAFIAGSGIFLVIEAAGRLTAPLPVQRGEIGIAVMVFSILATIGLVAYQRRVIAQTKSVAISADSLHYAGDLLINLSVIVSLGLAMTVDLPILDPLFAIAIALWLMKNAWTIGANSVNLLMDRELPPEDRVRIIKLALENPRVFDIHDLRTRSSGPQTFIQLNVELDGEMTLSASHAIVTEIENRLRAAFPGAEVLIHQDPAGIQEDHHPDFAYEDTSALLEADAASQPRRL” the protein production was “failed”.
